According to US20100144645A1, “COMPOSITIONS AND METHODS FOR ENHANCING […] POTENCY OF […]-COMPOUNDS, A[…] ADVERSE SIDE EFFECTS, AND […] ABUSE” (SHIRE LLC, priority 2006, published 2010):
Residues, ends and D or L forms follow the SMILES beside them. *: point of attachment. X1 = COc1ccc2c3c1OC1C(O*)=CCC4[C@@H](C2)N(C)CC[C@]314

What was measured:
[1] = Oral bioavailability of oxycodone conjugates (plasma oxycodone plus oxymorphone); settings: rats; for AUC % (Oral Bioavailability): Table G
[2] = stability 90 C., 20 min (V, BP, TW, BS) of hydrocodone conjugates; settings: for stability 90 C., 20 min BP: BP (abbreviation not defined); for stability 90 C., 20 min BS: BS (abbreviation not defined); for stability 90 C., 20 min TW: TW (abbreviation not defined); for stability 90 C., 20 min V: V (abbreviation not defined)
[3] = Oral bioavailability of hydrocodone conjugates (plasma hydrocodone plus hydromorphone); settings: for bioavailabiltty (% HC) oral AUC / bioavailabiltty (% HC) oral Cmax: rats, relative to hydrocodone; for Oral:IN Index AUC: ratio of oral to IN AUC (% HC); for Oral:IN Index Cmax: ratio of oral to IN Cmax (% HC)
[4] = Intranasal bioavailability of hydrocodone conjugates; settings: rats, relative to hydrocodone
[5] = n = 4 animals, analysis by LC-MS, OXY = 100

With `CC[C@H](C)[C@H](NC(=O)[C@H](CCC(=O)O)NC(=O)[C@@H](N)CCC(=O)O)C(=O)OC1=CCC2(O)[C@H]3Cc4ccc(OC)c5c4[C@@]2(CCN3C)C1O5` (stereo partly drawn) [Glu-Glu-Ile-OC] the “Oral (% AUC)” value [1, 5] was 179 % AUC.
With `COc1ccc2c3c1OC1C(OC(=O)[C@H](CC(C)C)NC(=O)[C@H](CCC(=O)O)NC(=O)[C@@H](N)CCC(=O)O)=CCC4(O)[C@@H](C2)N(C)CC[C@]314` (stereo partly drawn) [Glu-Glu-Leu-OC] the “Oral (% AUC)” value [1, 5] was 80 % AUC.
For `COc1ccc2c3c1OC1C(OC(=O)[C@H](Cc4ccccc4)NC(=O)[C@H](CCC(=O)O)NC(=O)[C@@H](N)CCC(=O)O)=CCC4(O)[C@@H](C2)N(C)CC[C@]314` (stereo partly drawn) [Glu-Glu-Phe-OC], the “Oral (% AUC)” value [1, 5] was 49 % AUC.
For `COc1ccc2c3c1OC1C(OC(=O)[C@@H]4CCCN4C(=O)[C@H](CCC(=O)O)NC(=O)[C@@H](N)CCC(=O)O)=CCC4(O)[C@@H](C2)N(C)CC[C@]314` (stereo partly drawn) [Glu-Glu-Pro-OC], the “Oral (% AUC)” value [1, 5] was 71 % AUC.
In the case of `COc1ccc2c3c1OC1C(OC(=O)[C@@H](NC(=O)[C@H](CCC(=O)O)NC(=O)[C@@H](N)CCC(=O)O)C(C)C)=CCC4(O)[C@@H](C2)N(C)CC[C@]314` (stereo partly drawn) [Glu-Glu-Val-OC], the “Oral (% AUC)” value [1, 5] is reported as 55 % AUC.
In the case of `CC[C@H](C)[C@H](NC(=O)CNC(=O)CN)C(=O)OC1=CCC2(O)[C@H]3Cc4ccc(OC)c5c4[C@@]2(CCN3C)C1O5` (stereo partly drawn) [Gly-Gly-Ile-OC], the “Oral (% AUC)” value ([1]; n = 4, LC-MS, Dosed at 40% higher levels than calculated) is reported as 224 % AUC.
With `COc1ccc2c3c1OC1C(OC(=O)[C@H](Cc4ccccc4)NC(=O)CNC(=O)CN)=CCC4(O)[C@@H](C2)N(C)CC[C@]314` (stereo partly drawn) [Gly-Gly-Phe-OC] the “Oral (% AUC)” value [1, 5] was 163 % AUC.
In the case of `COc1ccc2c3c1OC1C(OC(=O)[C@@H](NC(=O)CNC(=O)CN)C(C)C)=CCC4(O)[C@@H](C2)N(C)CC[C@]314` (stereo partly drawn) [Gly-Gly-Val-OC], the “Oral (% AUC)” value [1, 5] is reported as 123 % AUC.
With `CC[C@H](C)[C@H](N)C(=O)N[C@H](C(=O)N[C@H](C(=O)OC1=CCC2(O)[C@H]3Cc4ccc(OC)c5c4[C@@]2(CCN3C)C1O5)[C@@H](C)CC)[C@@H](C)CC` (stereo partly drawn) [Ile-Ile-Ile-OC] the “Oral (% AUC)” value [1, 5] was 83 % AUC.
With `COc1ccc2c3c1OC1C(OC(=O)[C@@H](NC(=O)[C@H](CC(C)C)NC(=O)[C@@H](N)CC(C)C)C(C)C)=CCC4(O)[C@@H](C2)N(C)CC[C@]314` (stereo partly drawn) [Leu-Leu-Val-OC] the “Oral (% AUC)” value [1, 5] was 81 % AUC.
With `CC[C@H](C)[C@H](NC(=O)[C@H](CCCCN)NC(=O)[C@@H](N)CCCCN)C(=O)OC1=CCC2(O)[C@H]3Cc4ccc(OC)c5c4[C@@]2(CCN3C)C1O5` (stereo partly drawn) [Lys-Lys-Ile-OC] the “Oral (% AUC)” value [1, 5] was 74 % AUC.
For `COc1ccc2c3c1OC1C(OC(=O)[C@H](CC(C)C)NC(=O)[C@H](CCCCN)NC(=O)[C@@H](N)CCCCN)=CCC4(O)[C@@H](C2)N(C)CC[C@]314` (stereo partly drawn) [Lys-Lys-Leu-OC], the “Oral (% AUC)” value [1, 5] was 46 % AUC.
For `COc1ccc2c3c1OC1C(OC(=O)[C@H](Cc4ccccc4)NC(=O)[C@H](CCCCN)NC(=O)[C@@H](N)CCCCN)=CCC4(O)[C@@H](C2)N(C)CC[C@]314` (stereo partly drawn) [Lys-Lys-Phe-OC], the “Oral (% AUC)” value [1, 5] was 37 % AUC.
In the case of `COc1ccc2c3c1OC1C(OC(=O)[C@@H](NC(=O)[C@H](CCCCN)NC(=O)[C@@H](N)CCCCN)C(C)C)=CCC4(O)[C@@H](C2)N(C)CC[C@]314` (stereo partly drawn) [Lys-Lys-Val-OC], the “Oral (% AUC)” value [1, 5] is reported as 108 % AUC.
With `CC[C@H](C)[C@H](NC(=O)[C@H](Cc1ccccc1)NC(=O)[C@@H](N)Cc1ccccc1)C(=O)OC1=CCC2(O)[C@H]3Cc4ccc(OC)c5c4[C@@]2(CCN3C)C1O5` (stereo partly drawn) [Phe-Phe-Ile-OC] the “Oral (% AUC)” value [1, 5] was 59 % AUC.
In the case of `COc1ccc2c3c1OC1C(OC(=O)[C@@H](NC(=O)[C@H](Cc4ccccc4)NC(=O)[C@@H](N)Cc4ccccc4)C(C)C)=CCC4(O)[C@@H](C2)N(C)CC[C@]314` (stereo partly drawn) [Phe-Phe-Val-OC], the “Oral (% AUC)” value [1, 5] is reported as 32 % AUC.
For `CC[C@H](C)[C@H](NC(=O)[C@@H]1CCCN1C(=O)[C@@H]1CCCN1)C(=O)OC1=CCC2(O)[C@H]3Cc4ccc(OC)c5c4[C@@]2(CCN3C)C1O5` (stereo partly drawn) [Pro-Pro-Ile-OC], the “AUC % (Oral Bioavailability)” value [1] was 85% and the “Oral (% AUC)” value [1, 5] was 85 % AUC.
For `COc1ccc2c3c1OC1C(OC(=O)[C@@H](NC(=O)[C@@H]4CCCN4C(=O)[C@@H]4CCCN4)C(C)C)=CCC4(O)[C@@H](C2)N(C)CC[C@]314` (stereo partly drawn) [Pro-Pro-Val-OC], the “AUC % (Oral Bioavailability)” value [1] was 152% and the “Oral (% AUC)” value [1, 5] was 152 % AUC.
With `CC[C@H](C)[C@H](NC(=O)[C@H](Cc1ccccc1)NC(=O)[C@H](Cc1ccccc1)NC(=O)[C@H](Cc1ccc(O)cc1)NC(=O)[C@@H](N)Cc1ccc(O)cc1)C(=O)OC1=CCC2[C@H]3Cc4ccc(OC)c5c4[C@@]2(CCN3C)C1O5` (stereo partly shown) [Tyr2-Phe2-Ile-HC] (H-YYFFI-X1) the “stability 90 C., 20 min BP” value [2] was 5, the “stability 90 C., 20 min BS” value [2] was 50 and the “stability 90 C., 20 min TW” value [2] was 5. The “stability 90 C., 20 min V” value [2] was 0, the “bioavailabiltty (% HC) oral AUC” value [3] was 113 % HC and the “bioavailabiltty (% HC) oral Cmax” value [3] was 63 % HC. The “Oral:IN Index AUC” value [3] was 4.35, the “Oral:IN Index Cmax” value [3] was 1.85 and the “bioavailabiltty (% HC) IN AUC” value [4] was 26 % HC. For the same compound, the “bioavailabiltty (% HC) IN Cmax” value [4] was 34 % HC.
For `CC[C@H](C)[C@H](NC(=O)[C@H](Cc1ccc(O)cc1)NC(=O)[C@@H](N)Cc1ccc(O)cc1)C(=O)OC1=CCC2[C@H]3Cc4ccc(OC)c5c4[C@@]2(CCN3C)C1O5` (stereo partly drawn) [Tyr-Tyr-Ile-HC], the “stability 90 C., 20 min BP” value [2] was 66, the “stability 90 C., 20 min BS” value [2] was 100 and the “stability 90 C., 20 min TW” value [2] was 23. The “stability 90 C., 20 min V” value [2] was 0, the “bioavailabiltty (% HC) oral AUC” value [3] was 145 % HC and the “bioavailabiltty (% HC) oral Cmax” value [3] was 234 % HC. The “Oral:IN Index AUC” value [3] was 7.25, the “Oral:IN Index Cmax” value [3] was 6.88 and the “bioavailabiltty (% HC) IN AUC” value [4] was 20 % HC. For the same compound, the “bioavailabiltty (% HC) IN Cmax” value [4] was 34 % HC.
With `CC[C@H](C)[C@H](NC(=O)[C@H](Cc1ccc(O)cc1)NC(=O)[C@@H](N)Cc1ccc(O)cc1)C(=O)OC1=CCC2(O)[C@H]3Cc4ccc(OC)c5c4[C@@]2(CCN3C)C1O5` (stereo partly drawn) [Tyr-Tyr-Ile-OC] the “Oral (% AUC)” value [1, 5] was 85 % AUC.
With `COc1ccc2c3c1OC1C(OC(=O)[C@H](Cc4ccccc4)NC(=O)[C@H](Cc4ccc(O)cc4)NC(=O)[C@@H](N)Cc4ccc(O)cc4)=CCC4(O)[C@@H](C2)N(C)CC[C@]314` (stereo partly drawn) [Tyr-Tyr-Phe-OC] the “Oral (% AUC)” value [1, 5] was 73 % AUC.
In the case of `COc1ccc2c3c1OC1C(OC(=O)[C@@H]4CCCN4C(=O)[C@H](Cc4ccc(O)cc4)NC(=O)[C@@H](N)Cc4ccc(O)cc4)=CCC4(O)[C@@H](C2)N(C)CC[C@]314` (stereo partly drawn) [Tyr-Tyr-Pro-OC], the “Oral (% AUC)” value [1, 5] is reported as 59 % AUC.
In the case of `COc1ccc2c3c1OC1C(OC(=O)[C@@H](NC(=O)[C@H](Cc4ccc(O)cc4)NC(=O)[C@@H](N)Cc4ccc(O)cc4)C(C)C)=CCC4(O)[C@@H](C2)N(C)CC[C@]314` (stereo partly drawn) [Tyr-Tyr-Val-OC], the “AUC % (Oral Bioavailability)” value [1] is reported as 124% and the “Oral (% AUC)” value [1, 5] is reported as 124 % AUC.
In the case of `COc1ccc2c3c1OC1C(OC(=O)[C@H](Cc4ccccc4)NC(=O)[C@@H](NC(=O)[C@@H](N)C(C)C)C(C)C)=CCC4(O)[C@@H](C2)N(C)CC[C@]314` (stereo partly drawn) [Val-Val-Phe-OC], the “Oral (% AUC)” value [1, 5] is reported as 120 % AUC.
